Reference: patent publication US20230263867

How the values were obtained:
[1] = system: fluorescent tripeptidyl substrate PRR, MeOC-GGG-PRR-GG-DPA-KK-NH2
[2] = molecular target: albumin in human plasma / human serum (UniProt P02768)
[3] = system: recombinant pro-stem bromelain
[4] = system: recombinant pro-fruit bromelain
[5] = system: T1, FVR-7-amino-4-methylcoumarin
T1 sequence: FVR

UniProt P02768, sequence (P02768 whole entry, looked up): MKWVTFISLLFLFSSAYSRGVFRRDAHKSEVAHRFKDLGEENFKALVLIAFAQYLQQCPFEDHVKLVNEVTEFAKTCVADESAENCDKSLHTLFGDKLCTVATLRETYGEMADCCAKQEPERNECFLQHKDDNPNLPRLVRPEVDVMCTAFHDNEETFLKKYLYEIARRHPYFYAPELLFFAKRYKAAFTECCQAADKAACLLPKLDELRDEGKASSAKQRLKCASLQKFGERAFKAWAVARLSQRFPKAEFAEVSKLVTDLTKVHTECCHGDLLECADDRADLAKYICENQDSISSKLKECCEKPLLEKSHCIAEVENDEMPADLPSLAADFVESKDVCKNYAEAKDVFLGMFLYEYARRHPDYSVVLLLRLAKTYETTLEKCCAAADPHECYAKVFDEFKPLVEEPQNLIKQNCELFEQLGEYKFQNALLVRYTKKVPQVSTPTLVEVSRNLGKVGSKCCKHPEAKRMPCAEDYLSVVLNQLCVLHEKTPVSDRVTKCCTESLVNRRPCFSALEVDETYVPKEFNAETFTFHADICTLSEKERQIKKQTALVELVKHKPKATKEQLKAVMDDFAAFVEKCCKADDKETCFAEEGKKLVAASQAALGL

With activated stem bromelain the “initial rate of proteolysis of PRR (fluorescence)” value [1] was “about 0.024 µg PRR molecules per min”.

With “active ananain (recombinant, obtained by activation of pro-ananain)” the “proteolysis of human plasma/serum proteins, SDS-PAGE” value [2] was “The clear reduction of albumin in sample A, C and D in the presence of ananain indicates that albumin is a protein substrate for ananain”, the “cleavage of pro-SB by active ananain, SDS-PAGE time course” value [3] was “mixing active ananain and pro-SB at a weight ratio of 1:25 led to a complete cleavage of pro-SB within 10 min, resulting in two fragments of 24 and 12 kDa” and the “cleavage of pro-SB on an ananain-immobilized column, SDS-PAGE” value [3] was “The collected activated SB was subject to SDS-PAGE analysis and was confirmed to be fully activated”. For the same substance, the “cleavage of pro-FB on an ananain-immobilized column, SDS-PAGE” value [4] was “The collected activated FB was subject to SDS-PAGE analysis and was confirmed to be fully activated”.

With recombinant pro-fruit bromelain the “proteolysis of FVR-AMC (fluorescence)” value [5] was “pro-FB did not cleave FVR-AMC at all”.

recombinant pro-stem bromelain was tested, and the “initial rate of proteolysis of PRR (fluorescence)” value [1] was “the cleavage of PRR by 100 nM Pro-SB was negligible”.
